Experimental findings from patent US20050100554A1 (published 2005) are described below.

B2: Human papillomavirus 11 E2 (other)
chain: MEAIAKRLDACQDQLLELYEENSIDIHKHIMHWKCIRLESVLLHKAKQMGLSHIGLQVVPPLTVSETKGHNAIEMQMHLESLAKTQYGVEPWTLQDTSYEMWLTPPKRCFKKQGNTVEVKFDGCEDNVMEYVVWTHIYLQDNDSWVKVTSSVDAKGIYYTCGQFKTYYVNFNKEAQKYGSTNHWEVCYGSTVICSPASVSSTVREVSIAEPTTYTPAQTTAPTVSACTTEDGVSAPPRKRARGPSTNNTLCVANIRSVDSTINNIVTDNYNKHQRRNNCHSAATPIVQLQGDSNCLKCFRYRLNDKYKHLFELASSTWHWASPEAPHKNAIVTLTYSSEEQRQQFLNSVKIPPTIRHKVGFMSLHLL
notes: also called HPV 11 E2; cbe_250781

Experiment [1] has as its target T1, SCO1 (human, UniProt O75880 68-301).
T1 construct: also called cbe_1699351
T1 sequence: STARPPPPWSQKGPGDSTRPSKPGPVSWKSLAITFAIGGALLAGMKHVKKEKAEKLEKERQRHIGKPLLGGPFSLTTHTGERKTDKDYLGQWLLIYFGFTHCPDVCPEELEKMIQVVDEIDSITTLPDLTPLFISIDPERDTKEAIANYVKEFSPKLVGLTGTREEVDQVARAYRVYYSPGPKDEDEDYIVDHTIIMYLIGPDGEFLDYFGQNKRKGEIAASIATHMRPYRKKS
The experiment is described as follows: Y2H; INT ID 6.

The target in experiment [2] is T2, steroid receptor RNA activator 1 (human, UniProt Q9HD15 1-224).
T2 construct: also called SRA1; cbe_4344185
T2 sequence: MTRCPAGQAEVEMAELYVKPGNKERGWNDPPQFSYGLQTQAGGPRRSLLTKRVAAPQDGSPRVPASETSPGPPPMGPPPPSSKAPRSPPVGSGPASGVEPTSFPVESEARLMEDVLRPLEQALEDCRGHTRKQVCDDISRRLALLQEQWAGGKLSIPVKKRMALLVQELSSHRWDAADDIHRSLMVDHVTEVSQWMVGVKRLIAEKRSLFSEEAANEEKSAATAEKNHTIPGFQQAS
The experiment is described as follows: Y2H; INT ID 7.

Experiment [3] has as its target T3, MT2A (human, UniProt P02795 1-61).
T3 construct: also called cbe_862174
The experiment is described as follows: Y2H; INT ID 5.

Experiment [4] deals with T4, KRT8 (human, UniProt P05787 1-483).
T4 construct: also called cbe_4269571
T4 sequence: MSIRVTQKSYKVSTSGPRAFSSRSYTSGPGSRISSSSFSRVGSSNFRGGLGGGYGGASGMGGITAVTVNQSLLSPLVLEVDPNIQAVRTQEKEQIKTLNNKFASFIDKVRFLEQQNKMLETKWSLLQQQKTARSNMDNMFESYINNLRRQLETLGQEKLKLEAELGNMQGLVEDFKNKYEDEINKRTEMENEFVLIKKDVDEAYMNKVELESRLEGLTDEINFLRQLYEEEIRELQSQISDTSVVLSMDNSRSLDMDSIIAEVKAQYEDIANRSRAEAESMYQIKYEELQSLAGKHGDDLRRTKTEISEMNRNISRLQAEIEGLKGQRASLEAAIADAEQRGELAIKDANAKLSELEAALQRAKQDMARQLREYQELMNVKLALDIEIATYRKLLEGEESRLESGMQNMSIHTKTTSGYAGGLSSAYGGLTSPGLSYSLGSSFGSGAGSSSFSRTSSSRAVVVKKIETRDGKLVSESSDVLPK
The experiment is described as follows: Y2H; INT ID 16.

Experiment [5] concerns the target B2. The experiment is described as follows: Y2H; INT ID 14.
In experiment [6] the target is T5, MAPK9 (human, UniProt P45984 1-424).
T5 construct: also called cbe_4175362
The experiment is described as follows: Y2H; INT ID 32.

Experiment [7] deals with T6, rho/rac guanine nucleotide exchange factor (GEF) 2 (human, UniProt Q92974 28-986).
T6 construct: also called ARHGEF2; cbe_3694420
T6 sequence: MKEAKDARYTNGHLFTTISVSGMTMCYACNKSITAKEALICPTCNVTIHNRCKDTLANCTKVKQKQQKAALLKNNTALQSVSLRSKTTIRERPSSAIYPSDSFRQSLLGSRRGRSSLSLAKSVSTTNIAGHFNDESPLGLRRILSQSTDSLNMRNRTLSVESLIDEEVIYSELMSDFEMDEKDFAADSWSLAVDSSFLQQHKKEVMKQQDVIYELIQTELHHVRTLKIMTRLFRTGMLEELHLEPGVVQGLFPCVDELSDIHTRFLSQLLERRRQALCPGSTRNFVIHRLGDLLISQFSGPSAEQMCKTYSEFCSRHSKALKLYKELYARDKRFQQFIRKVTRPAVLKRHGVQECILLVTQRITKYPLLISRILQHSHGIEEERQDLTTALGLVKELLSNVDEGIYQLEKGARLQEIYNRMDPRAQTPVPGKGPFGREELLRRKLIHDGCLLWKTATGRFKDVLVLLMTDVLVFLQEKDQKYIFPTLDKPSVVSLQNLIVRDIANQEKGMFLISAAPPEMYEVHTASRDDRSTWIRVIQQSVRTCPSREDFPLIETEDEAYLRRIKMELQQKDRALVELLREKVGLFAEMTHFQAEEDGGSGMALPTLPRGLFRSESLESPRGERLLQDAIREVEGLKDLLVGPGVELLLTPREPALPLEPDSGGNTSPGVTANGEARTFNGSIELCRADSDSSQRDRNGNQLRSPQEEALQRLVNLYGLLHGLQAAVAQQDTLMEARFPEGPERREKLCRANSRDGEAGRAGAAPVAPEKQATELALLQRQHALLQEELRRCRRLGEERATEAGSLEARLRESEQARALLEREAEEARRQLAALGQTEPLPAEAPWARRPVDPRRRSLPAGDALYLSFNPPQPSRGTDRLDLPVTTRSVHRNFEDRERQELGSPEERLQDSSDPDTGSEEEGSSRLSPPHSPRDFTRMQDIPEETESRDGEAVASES
The experiment is described as follows: Y2H; INT ID 30.

Experiment [8] addresses T7, nucleoporin 214 kDa (human, UniProt P35658 2-2090).
T7 construct: also called NUP214; cbe_3590661
The experiment is described as follows: Y2H; INT ID 29.

The target in experiment [9] is T8, GPRK5 (human, UniProt P34947 1-590).
T8 construct: also called cbe_2541164
T8 sequence (P34947 whole entry): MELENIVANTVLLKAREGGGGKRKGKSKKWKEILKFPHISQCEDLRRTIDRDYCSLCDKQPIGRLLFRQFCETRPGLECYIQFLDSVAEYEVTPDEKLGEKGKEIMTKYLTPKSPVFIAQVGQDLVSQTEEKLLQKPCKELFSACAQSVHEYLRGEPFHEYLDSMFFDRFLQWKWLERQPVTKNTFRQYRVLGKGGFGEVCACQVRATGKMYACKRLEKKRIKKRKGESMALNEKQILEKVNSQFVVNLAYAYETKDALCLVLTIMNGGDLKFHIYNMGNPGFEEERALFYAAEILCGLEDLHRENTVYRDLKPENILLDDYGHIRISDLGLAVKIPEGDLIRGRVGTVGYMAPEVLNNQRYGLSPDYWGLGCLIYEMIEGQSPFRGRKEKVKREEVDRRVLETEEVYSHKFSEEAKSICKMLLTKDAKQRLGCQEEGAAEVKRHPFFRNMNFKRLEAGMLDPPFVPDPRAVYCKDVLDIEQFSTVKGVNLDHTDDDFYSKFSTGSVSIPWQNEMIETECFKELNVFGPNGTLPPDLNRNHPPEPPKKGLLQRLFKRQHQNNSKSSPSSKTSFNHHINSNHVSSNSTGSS
The experiment is described as follows: Y2H; INT ID 27.

In experiment [10] the target is T9, CD164 (human, UniProt Q04900 24-197).
T9 construct: also called cbe_3929669
T9 sequence (Q04900 24-197 limits assumed): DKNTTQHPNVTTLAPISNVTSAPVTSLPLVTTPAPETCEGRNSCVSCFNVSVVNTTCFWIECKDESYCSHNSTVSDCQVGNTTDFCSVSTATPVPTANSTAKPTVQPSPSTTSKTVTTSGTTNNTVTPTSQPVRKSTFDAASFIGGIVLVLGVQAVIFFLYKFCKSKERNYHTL
The experiment is described as follows: Y2H; INT ID 31.

T7 sequence (P35658 2-2090 limits assumed): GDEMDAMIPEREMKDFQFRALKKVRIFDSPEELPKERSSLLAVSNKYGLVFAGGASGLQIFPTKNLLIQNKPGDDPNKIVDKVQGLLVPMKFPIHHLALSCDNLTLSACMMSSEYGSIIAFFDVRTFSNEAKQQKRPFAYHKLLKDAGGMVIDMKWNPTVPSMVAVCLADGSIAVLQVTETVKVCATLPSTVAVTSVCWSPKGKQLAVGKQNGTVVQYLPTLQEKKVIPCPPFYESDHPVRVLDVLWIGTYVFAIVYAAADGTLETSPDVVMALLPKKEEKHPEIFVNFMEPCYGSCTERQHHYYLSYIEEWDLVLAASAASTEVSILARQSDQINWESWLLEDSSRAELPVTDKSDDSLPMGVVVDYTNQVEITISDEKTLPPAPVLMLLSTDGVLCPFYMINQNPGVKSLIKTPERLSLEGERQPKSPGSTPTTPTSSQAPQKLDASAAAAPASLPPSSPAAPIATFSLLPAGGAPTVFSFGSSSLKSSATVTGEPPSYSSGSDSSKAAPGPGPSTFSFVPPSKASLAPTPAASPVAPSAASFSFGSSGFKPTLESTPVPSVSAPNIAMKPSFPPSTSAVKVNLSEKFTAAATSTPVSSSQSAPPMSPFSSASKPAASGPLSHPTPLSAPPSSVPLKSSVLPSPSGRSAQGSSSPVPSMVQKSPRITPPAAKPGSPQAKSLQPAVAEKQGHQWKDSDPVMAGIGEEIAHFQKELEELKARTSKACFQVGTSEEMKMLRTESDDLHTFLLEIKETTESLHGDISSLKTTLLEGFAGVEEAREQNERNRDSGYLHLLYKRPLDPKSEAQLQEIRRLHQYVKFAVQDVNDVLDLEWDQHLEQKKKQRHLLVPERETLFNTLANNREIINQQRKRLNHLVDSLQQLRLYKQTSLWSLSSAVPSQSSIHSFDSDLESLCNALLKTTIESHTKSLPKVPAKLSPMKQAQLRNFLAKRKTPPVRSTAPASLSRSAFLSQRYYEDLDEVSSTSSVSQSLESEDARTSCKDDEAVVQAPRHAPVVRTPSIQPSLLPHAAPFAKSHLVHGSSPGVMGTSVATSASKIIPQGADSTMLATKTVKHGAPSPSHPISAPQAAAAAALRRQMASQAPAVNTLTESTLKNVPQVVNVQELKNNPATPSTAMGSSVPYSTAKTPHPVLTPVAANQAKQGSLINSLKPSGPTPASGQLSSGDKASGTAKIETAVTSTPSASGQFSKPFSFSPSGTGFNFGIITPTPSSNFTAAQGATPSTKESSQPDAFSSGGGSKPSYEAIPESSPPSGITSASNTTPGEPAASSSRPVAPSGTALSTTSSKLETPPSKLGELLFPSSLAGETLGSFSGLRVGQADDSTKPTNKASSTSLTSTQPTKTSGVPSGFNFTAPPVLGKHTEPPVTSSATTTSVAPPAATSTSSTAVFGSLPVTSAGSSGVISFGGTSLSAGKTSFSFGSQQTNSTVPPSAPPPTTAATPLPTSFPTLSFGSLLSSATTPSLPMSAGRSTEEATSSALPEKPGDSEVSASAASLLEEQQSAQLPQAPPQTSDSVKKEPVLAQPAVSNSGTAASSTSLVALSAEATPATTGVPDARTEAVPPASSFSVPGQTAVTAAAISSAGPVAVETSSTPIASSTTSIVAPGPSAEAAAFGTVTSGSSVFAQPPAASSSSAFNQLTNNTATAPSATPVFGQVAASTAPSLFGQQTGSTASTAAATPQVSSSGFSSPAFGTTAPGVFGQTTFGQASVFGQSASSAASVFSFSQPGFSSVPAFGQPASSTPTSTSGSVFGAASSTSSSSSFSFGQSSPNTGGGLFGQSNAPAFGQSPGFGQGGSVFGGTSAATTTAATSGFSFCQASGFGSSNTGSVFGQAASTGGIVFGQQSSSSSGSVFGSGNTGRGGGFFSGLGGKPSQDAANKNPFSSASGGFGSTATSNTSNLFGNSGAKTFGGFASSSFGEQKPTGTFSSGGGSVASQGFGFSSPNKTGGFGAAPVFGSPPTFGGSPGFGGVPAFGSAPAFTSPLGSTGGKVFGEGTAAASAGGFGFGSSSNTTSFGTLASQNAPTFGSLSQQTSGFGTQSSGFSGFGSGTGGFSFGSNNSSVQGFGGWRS
T3 sequence (P02795 whole entry): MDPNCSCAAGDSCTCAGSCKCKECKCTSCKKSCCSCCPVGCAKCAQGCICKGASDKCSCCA

B1: Human papillomavirus 11 E4 (other)
chain: MVVPIIGKYVMAAQLYVLLHLYLALYEKYPLLNLLHTPPHRPPPLQCPPAPRKTACRRRLGSEHVDRPLTTPCVWPTSDPWTVQSTTSSLTITTSTKEGTTVTVQLRL
notes: also called HPV 11 E4; cbe_250777
Turning to B1, the binding result in experiment [1], in experiment [2] and in experiment [3] was “binds” throughout.
With B2, in experiment [4], the binding result is “binds”.

B3: hypothetical gene supported by AL449243 (other)
chain: MASGAARWLVLAPVRSGALRSGPSLRKDGDVSAAWSGSGRSLVPSGSVIVTRSGAILPKPVKMSFGLLRVFSIVIPFLYVGTLISKNFAALLEEHDIFVPEDDDDDD
notes: also called Hs.306083; LOC91689
In the case of B3, the binding result in [5] was “binds”.

B4: Human papillomavirus 11 E6 (other)
chain: MESKDASTSATSIDQLCKTFNLSLHTLQIQCVFCRNALTTAEIYAYAYKNLKVVWRDNFPFAACACCLELQGKINQYRHFNYAAYAPTVEEETNEDILKVLIRCYLCHKPLCEIEKLKHILGKARFIKLNNQWKGRCLHCWTTCMEDLLP
notes: also called HPV 11 E6; cbe_250808
In the case of B4, the binding result in [6], in experiment [7], in experiment [8], in experiment [9] and in experiment [10] was “binds” in each case.
